# Data reported in IntAct's records for PubMed 19524572.
# B1: Phototropin-1 (Arabidopsis thaliana (Mouse-ear cress)), O48963 (parent)
# chain: MEPTEKPSTKPSSRTLPRDTRGSLEVFNPSTQLTRPDNPVFRPEPPAWQNLSDPRGTSPQPRPQQEPAPSNPVRSDQEIAVTTSWMALKDPSPETISKKTITAEKPQKSAVAAEQRAAEWGLVLKTDTKTGKPQGVGVRNSGGTENDPNGKKTTSQRNSQNSCRSSGEMSDGDVPGGRSGIPRVSEDLKDALSTFQQTFVVSDATKPDYPIMYASAGFFNMTGYTSKEVVGRNCRFLQGSGTDADELAKIRETLAAGNNYCGRILNYKKDGTSFWNLLTIAPIKDESGKVLKFIGMQVEVSKHTEGAKEKALRPNGLPESLIRYDARQKDMATNSVTELVEAVKRPRALSESTNLHPFMTKSESDELPKKPARRMSENVVPSGRRNSGGGRRNSMQRINEIPEKKSRKSSLSFMGIKKKSESLDESIDDGFIEYGEEDDEISDRDERPESVDDKVRQKEMRKGIDLATTLERIEKNFVITDPRLPDNPIIFASDSFLELTEYSREEILGRNCRFLQGPETDLTTVKKIRNAIDNQTEVTVQLINYTKSGKKFWNIFHLQPMRDQKGEVQYFIGVQLDGSKHVEPVRNVIEETAVKEGEDLVKKTAVNIDEAVRELPDANMTPEDLWANHSKVVHCKPHRKDSPPWIAIQKVLESGEPIGLKHFKPVKPLGSGDTGSVHLVELVGTDQLFAMKAMDKAVMLNRNKVHRARAEREILDLLDHPFLPALYASFQTKTHICLITDYYPGGELFMLLDRQPRKVLKEDAVRFYAAQVVVALEYLHCQGIIYRDLKPENVLIQGNGDISLSDFDLSCLTSCKPQLLIPSIDEKKKKKQQKSQQTPIFMAEPMRASNSFVGTEEYIAPEIISGAGHTSAVDWWALGILMYEMLYGYTPFRGKTRQKTFTNVLQKDLKFPASIPASLQVKQLIFRLLQRDPKKRLGCFEGANEVKQHSFFKGINWALIRCTNPPELETPIFSGEAENGEKVVDPELEDLQTNVF
# partner: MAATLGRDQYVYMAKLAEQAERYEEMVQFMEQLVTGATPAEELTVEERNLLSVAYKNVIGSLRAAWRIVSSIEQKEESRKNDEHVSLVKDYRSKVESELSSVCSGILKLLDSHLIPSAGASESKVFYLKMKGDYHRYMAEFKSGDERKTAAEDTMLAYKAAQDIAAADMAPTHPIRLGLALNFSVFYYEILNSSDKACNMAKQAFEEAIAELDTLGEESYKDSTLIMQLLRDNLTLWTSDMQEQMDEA
# B2: Phototropin-1 (Arabidopsis thaliana (Mouse-ear cress)), O48963 (parent)
# chain: B1 chain
# partner: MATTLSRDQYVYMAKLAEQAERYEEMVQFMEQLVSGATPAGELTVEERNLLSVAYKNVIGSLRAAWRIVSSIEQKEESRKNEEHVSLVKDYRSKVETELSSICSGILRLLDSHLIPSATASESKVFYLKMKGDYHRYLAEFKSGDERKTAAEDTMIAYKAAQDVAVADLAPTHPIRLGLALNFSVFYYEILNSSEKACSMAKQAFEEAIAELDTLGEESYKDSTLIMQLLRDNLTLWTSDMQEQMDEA
# Variants of: B1
# Details: with 14336_arath GRF6, P48349
row,Variant,effect of a mutation on the interaction
1,S350A,decreasing interaction

# Variants of: B1
# Details: with 14336_arath GRF6, P48349
# Remark: another data set of the same source
row,Variant,effect of a mutation on the interaction
1,S350A,disrupting interaction
2,S376A,disrupting interaction

# Variants of: B1
# Details: with 14336_arath GRF6, P48349
# Remark: another data set of the same source
row,Variant,effect of a mutation on the interaction
1,S410A,disrupting interaction

# Variants of: B1
# Details: with 14336_arath GRF6, P48349
# Remark: another data set of the same source
row,Variant,effect of a mutation on the interaction
1,S376A,decreasing interaction

# Variants of: B2
# Details: with 14338_arath GRF8, P48348
row,Variant,effect of a mutation on the interaction
1,S376A,disrupting interaction
2,S410A,disrupting interaction
3,S350A,disrupting interaction
